Assay results as given in US6548060 (dated 2003).

Assays:
[1] = target: ASK1 (apoptosis signal-regulating kinase), full-length (UniProt Q99683); experiment: cell-based or functional assay
[2] = target: T1, ASK1 (apoptosis signal-regulating kinase), full-length, Q99683
T1 chain: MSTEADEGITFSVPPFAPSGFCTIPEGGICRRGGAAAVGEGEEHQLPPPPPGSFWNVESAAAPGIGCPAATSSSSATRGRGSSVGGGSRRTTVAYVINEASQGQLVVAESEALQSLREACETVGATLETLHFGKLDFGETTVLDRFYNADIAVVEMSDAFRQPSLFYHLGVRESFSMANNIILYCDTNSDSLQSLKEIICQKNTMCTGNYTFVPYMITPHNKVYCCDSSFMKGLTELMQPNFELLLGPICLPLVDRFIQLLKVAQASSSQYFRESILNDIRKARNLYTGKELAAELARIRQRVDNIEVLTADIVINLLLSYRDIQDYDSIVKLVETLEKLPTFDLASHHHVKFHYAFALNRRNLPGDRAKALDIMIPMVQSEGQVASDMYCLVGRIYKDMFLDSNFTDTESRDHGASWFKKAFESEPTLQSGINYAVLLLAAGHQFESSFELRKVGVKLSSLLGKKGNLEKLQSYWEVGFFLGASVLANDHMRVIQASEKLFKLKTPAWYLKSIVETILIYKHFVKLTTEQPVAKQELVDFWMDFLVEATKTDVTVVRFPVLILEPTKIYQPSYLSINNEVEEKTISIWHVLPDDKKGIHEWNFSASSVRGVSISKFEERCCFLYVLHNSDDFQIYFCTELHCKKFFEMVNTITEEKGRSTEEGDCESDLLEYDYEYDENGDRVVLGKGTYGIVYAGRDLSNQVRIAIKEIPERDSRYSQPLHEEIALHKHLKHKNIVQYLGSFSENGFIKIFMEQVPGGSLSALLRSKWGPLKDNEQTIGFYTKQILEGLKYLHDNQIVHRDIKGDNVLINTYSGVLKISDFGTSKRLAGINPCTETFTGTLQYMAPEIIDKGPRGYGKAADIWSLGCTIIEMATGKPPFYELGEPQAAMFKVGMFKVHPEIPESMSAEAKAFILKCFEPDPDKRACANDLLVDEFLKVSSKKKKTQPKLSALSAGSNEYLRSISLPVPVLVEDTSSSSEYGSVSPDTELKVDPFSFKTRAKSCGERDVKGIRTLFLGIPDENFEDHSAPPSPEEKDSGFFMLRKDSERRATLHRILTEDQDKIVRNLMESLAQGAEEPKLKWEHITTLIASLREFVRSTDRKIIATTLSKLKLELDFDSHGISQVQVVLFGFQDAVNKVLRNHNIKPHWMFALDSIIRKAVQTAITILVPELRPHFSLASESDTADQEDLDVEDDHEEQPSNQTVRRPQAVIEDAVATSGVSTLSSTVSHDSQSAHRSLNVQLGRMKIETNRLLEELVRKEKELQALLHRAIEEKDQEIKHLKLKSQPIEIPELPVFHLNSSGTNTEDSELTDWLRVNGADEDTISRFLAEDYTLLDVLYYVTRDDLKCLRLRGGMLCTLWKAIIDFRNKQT

[3] = target: constitutive active mutant of Daxx, C-terminal 242 aa, Q9UER7
[4] = target: T2, N-terminal 236 aa extension of human glutaminyl-tRNA synthetase, P47897
T2 chain: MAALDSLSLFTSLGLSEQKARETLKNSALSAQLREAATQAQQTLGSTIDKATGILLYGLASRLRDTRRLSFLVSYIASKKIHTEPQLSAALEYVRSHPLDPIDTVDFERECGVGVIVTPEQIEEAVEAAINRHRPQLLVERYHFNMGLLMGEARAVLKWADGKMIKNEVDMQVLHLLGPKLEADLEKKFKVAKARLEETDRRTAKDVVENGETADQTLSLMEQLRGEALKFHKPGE

Sequence of constitutive active mutant of Daxx, C-terminal 242 aa, Q9UER7 (Q9UER7 whole entry, looked up, change not shown): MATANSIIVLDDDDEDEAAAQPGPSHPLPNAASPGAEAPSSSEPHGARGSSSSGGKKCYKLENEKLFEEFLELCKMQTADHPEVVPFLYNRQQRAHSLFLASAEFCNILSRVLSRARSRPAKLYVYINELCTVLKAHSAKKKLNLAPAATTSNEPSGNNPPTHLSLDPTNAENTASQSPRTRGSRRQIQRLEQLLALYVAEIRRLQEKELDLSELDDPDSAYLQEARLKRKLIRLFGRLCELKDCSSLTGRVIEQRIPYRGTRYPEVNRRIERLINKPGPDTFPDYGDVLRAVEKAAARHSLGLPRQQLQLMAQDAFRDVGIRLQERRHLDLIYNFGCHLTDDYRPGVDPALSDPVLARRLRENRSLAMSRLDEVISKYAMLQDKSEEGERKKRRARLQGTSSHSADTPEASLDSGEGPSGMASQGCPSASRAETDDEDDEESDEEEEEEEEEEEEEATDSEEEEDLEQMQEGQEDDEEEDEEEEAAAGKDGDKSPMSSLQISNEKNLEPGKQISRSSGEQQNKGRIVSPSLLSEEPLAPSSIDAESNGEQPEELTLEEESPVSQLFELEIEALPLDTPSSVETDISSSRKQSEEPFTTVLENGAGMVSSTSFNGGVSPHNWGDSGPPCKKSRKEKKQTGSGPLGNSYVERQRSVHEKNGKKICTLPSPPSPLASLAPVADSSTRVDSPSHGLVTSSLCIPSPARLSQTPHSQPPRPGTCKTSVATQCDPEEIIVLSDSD

“constitutive active mutant of Daxx, C-terminal 242 aa (from UniProt Q9UER7 499-740)” was tested. Which apoptotic cells (HeLa, beta-galactosidase co-transfection, apoptotic morphology) [1] did it give?
Its apoptotic cells (HeLa, beta-galactosidase co-transfection, apoptotic morphology) is 11%.

B1: C-terminal 539 aa catalytic domain of human glutaminyl-tRNA synthetase (protein)
chain: NYKTPGYVVTPHTMNLLKQHLEITGGQVRTRFPPEPNGILHIGHAKAINFNFGYAKANNGICFLRFDDTNPEKEEAKFFTAICDMVAWLGYTPYKVTYASDYFDQLYAWAVELIRRGLAYVCHQRGEELKGHNTLPSPWRDRPMEESLLLFEAMRKGKFSEGEATLRMKLVMEDGKMDPVAYRVKYTPHHRTGDKWCIYPTYDYTHCLCDSIEHITHSLCTKEFQARRSSYFWLCNALDVYCPVQWEYGRLNLHYAVVSKRKILQLVATGAVRDWDDPRLFTLTALRRRGFPPEAINNFCARVGVTVAQTTMEPHLLEACVRDVLNDTAPRAMAVLESLRVIITNFPAAKSLDIQVPNFPADETKGFHQVPFAPIVFIERTDFKEEPEPGFKRLAWGQPVGLRHTGYVIELQHVVKGPSGCVESLEVTCRRADAGEKPKAFIHWVSQPLMCEVRLYERLFQHKNPEDPTEVPGGFLSDLNLASLHVVDAALVDCSVALAKPFDKFQFERLGYFSVDPDSHQGKLVFNRTVTLKEDPGKV
With B1 as the molecule, how does the “kinase activity of ASK1 (MBP phosphorylation, immunocomplex kinase assay)” value [2] read?
Its value is “The ASK1 activity was inhibited by the expression of QRS-F and -C but not of QRS -N”.

B2: human glutaminyl-tRNA synthetase, full-length (protein)
chain: MAALDSLSLFTSLGLSEQKARETLKNSALSAQLREAATQAQQTLGSTIDKATGILLYGLASRLRDTRRLSFLVSYIASKKIHTEPQLSAALEYVRSHPLDPIDTVDFERECGVGVIVTPEQIEEAVEAAINRHRPQLLVERYHFNMGLLMGEARAVLKWADGKMIKNEVDMQVLHLLGPKLEADLEKKFKVAKARLEETDRRTAKDVVENGETADQTLSLMEQLRGEALKFHKPGENYKTPGYVVTPHTMNLLKQHLEITGGQVRTRFPPEPNGILHIGHAKAINFNFGYAKANNGICFLRFDDTNPEKEEAKFFTAICDMVAWLGYTPYKVTYASDYFDQLYAWAVELIRRGLAYVCHQRGEELKGHNTLPSPWRDRPMEESLLLFEAMRKGKFSEGEATLRMKLVMEDGKMDPVAYRVKYTPHHRTGDKWCIYPTYDYTHCLCDSIEHITHSLCTKEFQARRSSYFWLCNALDVYCPVQWEYGRLNLHYAVVSKRKILQLVATGAVRDWDDPRLFTLTALRRRGFPPEAINNFCARVGVTVAQTTMEPHLLEACVRDVLNDTAPRAMAVLESLRVIITNFPAAKSLDIQVPNFPADETKGFHQVPFAPIVFIERTDFKEEPEPGFKRLAWGQPVGLRHTGYVIELQHVVKGPSGCVESLEVTCRRADAGEKPKAFIHWVSQPLMCEVRLYERLFQHKNPEDPTEVPGGFLSDLNLASLHVVDAALVDCSVALAKPFDKFQFERLGYFSVDPDSHQGKLVFNRTVTLKEDPGKV
What does the source list for B2?
ASK1 kinase activity enhanced by Daxx-CA (GST-SEK1 as substrate) [2]: QRS inhibited the ASK1 activity enhanced by Daxx; kinase activity of ASK1 (MBP phosphorylation, immunocomplex kinase assay) [2]: The ASK1 activity was inhibited by the expression of QRS-F and -C but not of QRS -N

B3: ASK1 (apoptosis signal-regulating kinase), full-length (protein)
chain: MSTEADEGITFSVPPFAPSGFCTIPEGGICRRGGAAAVGEGEEHQLPPPPPGSFWNVESAAAPGIGCPAATSSSSATRGRGSSVGGGSRRTTVAYVINEASQGQLVVAESEALQSLREACETVGATLETLHFGKLDFGETTVLDRFYNADIAVVEMSDAFRQPSLFYHLGVRESFSMANNIILYCDTNSDSLQSLKEIICQKNTMCTGNYTFVPYMITPHNKVYCCDSSFMKGLTELMQPNFELLLGPICLPLVDRFIQLLKVAQASSSQYFRESILNDIRKARNLYTGKELAAELARIRQRVDNIEVLTADIVINLLLSYRDIQDYDSIVKLVETLEKLPTFDLASHHHVKFHYAFALNRRNLPGDRAKALDIMIPMVQSEGQVASDMYCLVGRIYKDMFLDSNFTDTESRDHGASWFKKAFESEPTLQSGINYAVLLLAAGHQFESSFELRKVGVKLSSLLGKKGNLEKLQSYWEVGFFLGASVLANDHMRVIQASEKLFKLKTPAWYLKSIVETILIYKHFVKLTTEQPVAKQELVDFWMDFLVEATKTDVTVVRFPVLILEPTKIYQPSYLSINNEVEEKTISIWHVLPDDKKGIHEWNFSASSVRGVSISKFEERCCFLYVLHNSDDFQIYFCTELHCKKFFEMVNTITEEKGRSTEEGDCESDLLEYDYEYDENGDRVVLGKGTYGIVYAGRDLSNQVRIAIKEIPERDSRYSQPLHEEIALHKHLKHKNIVQYLGSFSENGFIKIFMEQVPGGSLSALLRSKWGPLKDNEQTIGFYTKQILEGLKYLHDNQIVHRDIKGDNVLINTYSGVLKISDFGTSKRLAGINPCTETFTGTLQYMAPEIIDKGPRGYGKAADIWSLGCTIIEMATGKPPFYELGEPQAAMFKVGMFKVHPEIPESMSAEAKAFILKCFEPDPDKRACANDLLVDEFLKVSSKKKKTQPKLSALSAGSNEYLRSISLPVPVLVEDTSSSSEYGSVSPDTELKVDPFSFKTRAKSCGERDVKGIRTLFLGIPDENFEDHSAPPSPEEKDSGFFMLRKDSERRATLHRILTEDQDKIVRNLMESLAQGAEEPKLKWEHITTLIASLREFVRSTDRKIIATTLSKLKLELDFDSHGISQVQVVLFGFQDAVNKVLRNHNIKPHWMFALDSIIRKAVQTAITILVPELRPHFSLASESDTADQEDLDVEDDHEEQPSNQTVRRPQAVIEDAVATSGVSTLSSTVSHDSQSAHRSLNVQLGRMKIETNRLLEELVRKEKELQALLHRAIEEKDQEIKHLKLKSQPIEIPELPVFHLNSSGTNTEDSELTDWLRVNGADEDTISRFLAEDYTLLDVLYYVTRDDLKCLRLRGGMLCTLWKAIIDFRNKQT
How did the “ASK1 kinase activity (GST-SEK1 as substrate)” value [3] turn out when B3 was run?
Its value is “The active mutant of Daxx (Daxx-CA) activated ASK1”.

What about the “kinase activity of ASK1 (MBP phosphorylation, immunocomplex kinase assay)” value [4] of the same molecule?
Its value is “The ASK1 activity was inhibited by the expression of QRS-F and -C but not of QRS -N”.
